The source of these data is PMC6414702, “AtrR Is an Essential Determinant of Azole Resistance in Aspergillus fumigatus”.

For series [1], the target named is T1, AtrR DNA-binding domain (AtrR-DBD) (Aspergillus fumigatus) (UniProt Q4WI89).
T1 sequence: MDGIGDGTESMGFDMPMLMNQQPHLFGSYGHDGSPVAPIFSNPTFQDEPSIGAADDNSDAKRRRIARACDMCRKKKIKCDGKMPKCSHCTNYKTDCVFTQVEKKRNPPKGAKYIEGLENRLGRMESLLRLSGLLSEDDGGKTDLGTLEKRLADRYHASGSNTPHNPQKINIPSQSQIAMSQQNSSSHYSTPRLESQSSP
As to the kind of experiment: EMSA. The note with it: Biotin EMSA: 25 mM Tris-HCl pH 7.5, 80 mM NaCl, 35 mM KCl, 5 mM MgCl2, 10% glycerol, 1 ug poly(dI-dC), 20 ul, 0.1 ug AtrR-DBD, 20 pmol probe, room temperature ….

The target of series [2] is T2, AtrR DNA-binding domain (AtrR-DBD) (Aspergillus fumigatus, UniProt Q4WI89 1-199).
T2 sequence: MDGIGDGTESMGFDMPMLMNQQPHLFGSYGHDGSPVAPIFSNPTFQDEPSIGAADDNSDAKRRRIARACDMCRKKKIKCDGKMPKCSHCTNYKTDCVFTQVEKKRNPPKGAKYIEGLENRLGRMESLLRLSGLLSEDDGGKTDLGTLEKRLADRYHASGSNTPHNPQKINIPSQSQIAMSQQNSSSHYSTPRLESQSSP
As to the kind of experiment: competition; 10-fold excess over biotinylated 34-bp probe (12-fold in Methods); Biotin EMSA: 25 mM Tris-HCl pH 7.5, 80 mM NaCl, 35 mM KCl, 5 mM MgCl2, 10% glycerol, 1 ug poly(dI-dC), 20 ul, 0.1 ug AtrR-DBD, 20 pmol probe, room temperature 30 min; 32P EMSA and footprinting as in cited reference 40. The following applies: protein: recombinant; chain copies: 2; blunt.

Series [3] deals with T2, AtrR DNA-binding domain (AtrR-DBD). As to the kind of experiment: EMSA; 5 mM Mg2+, poly(dI-dC); Biotin EMSA: 25 mM Tris-HCl pH 7.5, 80 mM NaCl, 35 mM KCl, 5 mM MgCl2, 10% glycerol, 1 ug poly(dI-dC), 20 ul, 0.1 ug AtrR-DBD, 20 pmol probe, room temperature 30 min; 32P EMSA and footprinting as in cited reference 40. The following applies: protein: recombinant; chain copies: 2; label: 5' biotin on both strands; blunt. A general note: Mobility shift assays separate free from complexed probe on a gel.

For the molecule “GAAAAAACTCATGAGTGAATAATCGCAGCACCACTCCAGAGTTGTCTAGAATCACGCGGTCCGGATGTGTGCTGAGCCGAATGAAAGTTGCCTAATTACTAAGGTGTAGTTCCAGCATACCATACACCCTAACTCATACTACGGTAGGTAGATCTACTTACCTATGAACCTATATTGGTAGGTAGGTGAATATAAAATACAGCATG (double strand) [cyp51A promoter PCR probe]”, the binding entry in series [1] is listed as “binds”.

B1: EcoRI mutant competitor (dsDNA)
DNA 1: GTTGTCTCAGAATCACGCGGTCCGGATGTGGAATTCGCCGAAT
DNA 2: ATTCGGCGAATTCCACATCCGGACCGCGTGATTCTGAGACAAC
B1: the binding result in series [2] is recorded as “binds”.

B2: cyp51A 42-bp wild-type competitor (dsDNA)
DNA 1: GTTGTCTCAGAATCACGCGGTCCGGATGTGTGCTGAGCCGAAT
DNA 2: ATTCGGCTCAGCACACATCCGGACCGCGTGATTCTGAGACAAC
For the molecule B2, in series [2], the binding result is reported as “binds”.

B3: SphI mutant competitor (dsDNA)
DNA 1: GTTGTCTCAGAATCACGCGGGCATGCTGTGTGCTGAGCCGAAT
DNA 2: ATTCGGCTCAGCACACAGCATGCCCGCGTGATTCTGAGACAAC
Turning to B3, the binding result in series [2] was “no binding”.

B4: DM competitor (dsDNA)
DNA 1: GAATCACGCGGTATTGATGTGTGCTGAGTATAAT
DNA 2: ATTATACTCAGCACACATCAATACCGCGTGATTC
For the molecule B4, the binding result in series [2] is given as “no binding”.

B5: cyp51A 34-bp probe (dsDNA)
DNA 1: GAATCACGCGGTCCGGATGTGTGCTGAGCCGAAT
DNA 2: ATTCGGCTCAGCACACATCCGGACCGCGTGATTC
As for B5, the binding result in series [3] is “binds”.
